B1: RnfA subunit of the Rnf complex from Acetobacterium woodii (natural protein)
chain: MTLIFIMISAIFVNNFVLSRFLGICPFLGVSKQVETAVGMGVAVTFVMALASAITYVVQYAILDPLSLGYLQTIAFILIIAALVQLVEMIIKKSSPSLYQALGVYLPLITTNCAVLGVALINIQNEYNFIETIFNGVGAALGFTLAIVLFAGIRERLETSAVPKALEGFPIALLTAGLMAIAFLGFSGMKL
notes: RnfA, integral membrane subunit of the Na+-pumping Rnf complex, Acetobacterium woodii; rnf genes amplified from genomic DNA
B2: RnfB subunit of the Rnf complex from Acetobacterium woodii (natural protein)
chain: MLNAILVPVGILGVFGLIFGIGLAIAAKVFEVYEDPRVPLVRAALPGANCGGCGLPGCDALAANIVGGSAAIDACPVGGASCAAAVAEIMGMEAGSAVKKVATVICQGTCETAPNRAEYYGEMDCREAMIASGGSKGCRYGCLGYGTCKAVCPFDAIVIGEDGLPKVDPEKCTSCGKCVEACPKSIMTLVPEAQEVIVKCHNFDKGKIARLSCTTACIACGACVKACRFDAITVENNCAKIDYDKCRQCYECVDKCPMNCISGDVEYGKSTAYIIEENCIACGLCAKNCPVNAITGEIKKPPYVIDHDMCIGCGICFDKCRKSAIEMRPNKTK
notes: RnfB, membrane-anchored poly-ferredoxin subunit of the Rnf complex with eight [4Fe4S] clusters, Acetobacterium woodii; rnf genes amplified from genomic DNA; B8-domain is residues 30-100 of RnfB; also called poly-ferredoxin subunit RnfB
B3: RnfE subunit of the Rnf complex from Acetobacterium woodii (natural protein)
chain: MNFMKNLTRGIIRENPTFVLVLGMCPTLAVTTSAINGMGMGLATMLVLIGSNVAISALRKVIPDNIRIPAFVVVIASFVTIVGMLMKAYVPALDAALGIFIPLIVVNCIILARAEAFAFSNGIADSFADAVGMGLGFTLALTILGSIREILGAGSIFGFSLFGAAYEPVLLMILPPGAFLTLGLLIGLINWKTKKA
notes: RnfE, integral membrane subunit of the Rnf complex, homologous to RnfA (29% identity), Acetobacterium woodii; rnf genes amplified from genomic DNA
B4: RnfD subunit of the Rnf complex from Acetobacterium woodii (natural protein)
chain: MNELNLTVSSSPHIRAKHSTASIMQNVIIALLPALAVAGYVFGLWALALVAICVISSVATEAVIQKLLKKPITVNDWSAVVTGVLLAFNLPINAPWWIGVVGSVFAIAIVKQCFGGLGQNFINPALAARAFLLASWPGHMTSTAYIPLTDTVTTATPLALLKAGETGSMPSTLDLFTGLNGVYGCIGEISALALLIGGLYLIYKGIISWRIPTIYLLTIAIFALLVGQDPIVHMVSGGVMLGAFFMATDYASSPVTAKGQIIYAIGCGLITMIIRLYGGYPEGCSYSILLMNVATPLIERFTKERIYGVTKIKKEAKA
modifications: FMN covalently linked to T156
notes: RnfD, integral membrane subunit of the Rnf complex with ten transmembrane helices (riboflavin and covalent FMN), Acetobacterium woodii; rnf genes amplified from genomic DNA
B5: RnfG subunit of the Rnf complex from Acetobacterium woodii (natural protein)
chain: METKEKVQIDWKVVFKLGLILFVISAVAACALALTNYVTAGTIEEMNVQTNTVARQEVLPKAADFEAVPAKDVEKIASEIGMEKPEELLEVYIGKSNGEVVGYTVKTGPTSGYAGEVQVLTGISADGVITGITIIKSNETPGLGAKASGVWNDQFTGKSAKEELVVVKGTTKEGSNEIQAITGSTITSKAVTSGVNMSIQVYQNLSK
modifications: FMN covalently linked to T185
notes: RnfG, membrane-anchored periplasmic flavoprotein subunit of the Rnf complex, Acetobacterium woodii; rnf genes amplified from genomic DNA; The complex was captured on Ni-NTA by this tag; no cleavage step is described; not shown: His-Tag, C-terminal, kept

Where two headings read alike, the source gives them in different places.

The target of experiment [1] is T1, Rnf complex (NADH / FMN site in RnfC) (Acetobacterium woodii, UniProt H6LC32). The following applies: 30 µM ferredoxin pre-reduced by CO and CODH/ACS; 20 mM Tris/HCl, 20 mM NaCl, pH 7.2, 30 °C.
In experiment [2] the target is Rnf complex (riboflavin and FMN^D sites in RnfD) (Acetobacterium woodii, UniProt H6LC31).
Experiment [3] addresses Rnf complex (FMN^G site in RnfG) (Acetobacterium woodii, UniProt H6LC30). The following applies: covalent, linked to T185 of RnfG; 5 µM FMN in purification buffer.
Experiment [4] has as its target T1, Rnf complex (NADH / FMN site in RnfC). As to the kind of experiment: cryo-EM structure, […] Å. Type of experiment: binding. More on the design: whole six-subunit complex, His-tag at C-terminus of RnfG, plasmid-produced in A. woodii delta-rnf, DDM-solubilised, Ni-NTA and gel filtration, anoxic; with Na(+)-translocating ferredoxin:NAD(+) oxidoreductase complex subunit B; Na(+)-translocating ferredoxin:NAD(+) oxidoreductase complex subunit D; Na(+)-translocating ferredoxin:NAD(+) oxidoreductase complex subunit G; Na(+)-translocating ferredoxin:NAD(+) oxidoreductase complex subunit E; Na(+)-translocating ferredoxin:NAD(+) oxidoreductase complex subunit A. The following applies: 500 µM NADH, 10 min, anoxic; stacks on non-covalent FMN of RnfC.

The target in experiment [5] is B3. Nature of the experiment: cryo-EM structure; Rnf complex purified in DDM, grids prepared under strictly anoxic conditions; NADH-reduced (3.3 Å), Fd-reduced (2.8 Å; state with B8 closer to the membrane 2.9 Å) and apo (3.0 Å) states, all with the same overall organisation. The note with it: both partners purified.
Experiment [6] deals with B5. The experiment is described as above. The following applies: both partners purified.
In experiment [7] the target is T2, RnfC subunit of the Rnf complex from Acetobacterium woodii (Acetobacterium woodii, UniProt H6LC32 1-443).
T2 construct: rnf genes amplified from genomic DNA
T2 sequence: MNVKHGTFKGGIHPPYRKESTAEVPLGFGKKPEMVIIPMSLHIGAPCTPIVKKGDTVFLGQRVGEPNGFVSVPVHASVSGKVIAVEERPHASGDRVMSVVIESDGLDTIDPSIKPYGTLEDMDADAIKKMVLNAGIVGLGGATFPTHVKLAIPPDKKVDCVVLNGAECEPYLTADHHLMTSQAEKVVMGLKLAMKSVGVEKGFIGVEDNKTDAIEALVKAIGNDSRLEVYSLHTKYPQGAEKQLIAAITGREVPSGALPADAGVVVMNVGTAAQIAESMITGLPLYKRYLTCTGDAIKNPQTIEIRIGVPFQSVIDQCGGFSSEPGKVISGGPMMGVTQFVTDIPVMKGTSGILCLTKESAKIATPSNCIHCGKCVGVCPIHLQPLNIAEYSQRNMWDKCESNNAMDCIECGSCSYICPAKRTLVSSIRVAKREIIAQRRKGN
The description is as above. The note with it: both partners purified.

Experiment [8] addresses B2. The description is as above. The note with it: both partners purified.
Experiment [9] concerns the target B4. The experiment is described as above. The note with it: both partners purified.

On to `NC(=O)c1ccc[n+]([C@@H]2O[C@H](COP(=O)(O)OP(=O)(O)OC[C@H]3O[C@@H](n4cnc5c(N)ncnc54)[C@H](O)[C@@H]3O)[C@@H](O)[C@H]2O)c1` [NAD^+], for which the “ferredoxin:NAD oxidoreductase assay” value in experiment [1] was “catalysed the ferredoxin-dependent reduction of NAD^+”.
`Cc1cc2nc3c(=O)[nH]c(=O)nc-3n(C[C@H](O)[C@H](O)[C@H](O)COP(=O)(O)O)c2cc1C` [flavin mononucleotide]: the “cryo-EM structure, 2.8-3.3 Å” value is “RnfD contains an FMN^D cofactor covalently linked to T156^RnfD” in experiment [2] (covalent, linked to T156 of RnfD, 5 µM FMN in purification buffer) and “covalently binds FMN^G via T185^RnfG in its antiparallel βαβ-fold” in [3].
As for `NC(=O)C1=CN([C@@H]2O[C@H](COP(=O)(O)OP(=O)(O)OC[C@H]3O[C@@H](n4cnc5c(N)ncnc54)[C@H](O)[C@@H]3O)[C@@H](O)[C@H]2O)C=CC1` [NADH], the “cryo-EM structure, 3.3 Å” value in [4] is “we observed a well-resolved density for a bound NADH molecule”.
`Cc1cc2nc3c(=O)[nH]c(=O)nc-3n(C[C@H](O)[C@H](O)[C@H](O)CO)c2cc1C` [riboflavin]: the “cryo-EM structure, 2.8-3.3 Å” value in experiment [2] (pocket of RnfD connected to cytoplasmic side, hydrogen bonds to D249 and N123 of RnfD) is “RnfD binds the redox cofactor riboflavin (RBF)”.
Consider B1, for which the binding result in experiment [5] and in experiment [6] was “binds” in each case.
On to B2, for which the binding result in experiment [7] was “binds”.
Turning to B3, the binding result in experiment [6] is listed as “binds”.
Take B4: the binding result in experiment [7] was “binds”.
Consider B5, for which the binding result in experiment [8] and in experiment [9] was “binds” in each case.

The record behind these values is article PMC11889175, “Molecular principles of redox-coupled sodium pumping of the ancient Rnf machinery” (Nature Communications, 2025).
